Results: patent US20210238260
Numbering of substitutions follows the chain as printed. Names and notes keep the numbering of the source.

B1: FIXa R318Y/R338E/R403E/E410S (protein)
chain 1: YNSGKLEEFVQGNLERECMEEKCSFEEAREVFENTERTTEFWKQYVDGDQCESNPCLNGGSCKDDINSYECWCPFGFEGKNCELDVTCNIKNGRCEQFCKNSADNKVVCSCTEGYRLAENQKSCEPAVPFPCGRVSVSQTSKLTR
chain 2: VVGGEDAKPGQFPWQVVLNGKVDAFCGGSIVNEKWIVTAAHCVETGVKITVVAGEHNIEETEHTEQKRNVIRIIPHHNYNAAINKYNHDIALLELDEPLVLNSYVTPICIADKEYTNIFLKFGSGYVSGWGRVFHKGYSALVLQYLRVPLVDRATCLESTKFTIYNNMFCAGFHEGGRDSCQGDSGGPHVTEVEGTSFLTGIISWGEECAMKGKYGIYTKVSEYVNWIKSKTKLT
B2: FIXa variant R318Y/R338E/E410N (protein)
chain 1: B1 chain 1
chain 2: B1 chain 2 with E223R, S230N
B3: FIXa variant Y155F/R318Y/R338E/E410N (protein)
chain 1: B1 chain 1
chain 2: B1 chain 2 with E223R, S230N
B4: FIXa variant D203N/F205T/R338E/R403E (protein)
chain 1: B1 chain 1
chain 2: B1 chain 2 with D23N, F25T, Y138R, S230E
B5: FIXa variant R338E/R403E/E410N (protein)
chain 1: B1 chain 1
chain 2: B1 chain 2 with Y138R, S230N
B6: FIXa variant R318Y/R338E/R403E/E410N (protein)
chain 1: B1 chain 1
chain 2: B1 chain 2 with S230N
B7: FIXa variant Y155F/R318Y/R403E/E410N (protein)
chain 1: B1 chain 1
chain 2: B1 chain 2 with E158R, S230N
B8: FIXa variant K293E/R338E/R403E (protein)
chain 1: B1 chain 1
chain 2: B1 chain 2 with K113E, Y138R, S230E
B9: FIXa variant K228N/R318Y/E410N (protein)
chain 1: B1 chain 1
chain 2: B1 chain 2 with K48N, E158R, E223R, S230N
B10: FIXa variant D203N/F205T/R338E (protein)
chain 1: B1 chain 1
chain 2: B1 chain 2 with D23N, F25T, Y138R, E223R, S230E
B11: FIXa R318Y/R338E/E410S (protein)
chain 1: B1 chain 1
chain 2: B1 chain 2 with E223R
B12: FIXa variant D104N/K106S/R318Y/R338E/E410N (protein)
chain 1: B1 chain 1 with D104N, K106S
chain 2: B1 chain 2 with E223R, S230N
B13: FIXa variant D203N/F205T/R318Y (protein)
chain 1: B1 chain 1
chain 2: B1 chain 2 with D23N, F25T, E158R, E223R, S230E
B14: FIXa variant D203N/F205T/R338A (protein)
chain 1: B1 chain 1
chain 2: B1 chain 2 with D23N, F25T, Y138R, E158A, E223R, S230E
B15: FIXa variant A103N/N105S/R318Y/R338E/R403E/E410N (protein)
chain 1: B1 chain 1 with A103N, N105S
chain 2: B1 chain 2 with S230N
B16: FIXa variant Y155F/R338E/R403E/E410N (protein)
chain 1: B1 chain 1
chain 2: B1 chain 2 with Y138R, S230N
B17: FIXa variant D203N/F205T/K228N (protein)
chain 1: B1 chain 1
chain 2: B1 chain 2 with D23N, F25T, K48N, Y138R, E158R, E223R, S230E
B18: FIXa variant K293A/R338A/R403A (protein)
chain 1: B1 chain 1
chain 2: B1 chain 2 with K113A, Y138R, E158A, E223A, S230E
B19: FIXa variant K228N/R338E/R403E (protein)
chain 1: B1 chain 1
chain 2: B1 chain 2 with K48N, Y138R, S230E
B20: FIXa K228N/K247N/N249S (protein)
chain 1: B1 chain 1
chain 2: B1 chain 2 with K48N, K67N, N69S, Y138R, E158R, E223R, S230E
B21: FIXa variant R318Y/R338E/R403E (protein)
chain 1: B1 chain 1
chain 2: B1 chain 2 with S230E
B22: FIXa variant Y155F/R318Y/R338E/R403E (protein)
chain 1: B1 chain 1
chain 2: B1 chain 2 with S230E
B23: FIXa variant D104N/K106S/R318Y/R338E/R403E/E410N (protein)
chain 1: B1 chain 1 with D104N, K106S
chain 2: B1 chain 2 with S230N
B24: FIXa variant Y155F/R318Y/R338E/R403E/E410N (protein)
chain 1: B1 chain 1
chain 2: B1 chain 2 with S230N
B25: FIXa D104N/K106S/Y155F/K228N/K247N/N249S (protein)
chain 1: B1 chain 1 with D104N, K106S
chain 2: B1 chain 2 with K48N, K67N, N69S, Y138R, E158R, E223R, S230E
B26: FIXa D104N/K106S/K228N/K247N/N249S (protein)
chain 1: B1 chain 1 with D104N, K106S
chain 2: B1 chain 2 with K48N, K67N, N69S, Y138R, E158R, E223R, S230E
B27: FIXa variant D203N/F205T/E410N (protein)
chain 1: B1 chain 1
chain 2: B1 chain 2 with D23N, F25T, Y138R, E158R, E223R, S230N
B28: FIXa variant R318Y/R403E/E410N (protein)
chain 1: B1 chain 1
chain 2: B1 chain 2 with E158R, S230N
B29: FIXa variant A103N/N105S/Y155F/R318Y/R338E/R403E/E410N (protein)
chain 1: B1 chain 1 with A103N, N105S
chain 2: B1 chain 2 with S230N

Target: Factor X (FX), P00742
Sequence (P00742 whole entry, looked up): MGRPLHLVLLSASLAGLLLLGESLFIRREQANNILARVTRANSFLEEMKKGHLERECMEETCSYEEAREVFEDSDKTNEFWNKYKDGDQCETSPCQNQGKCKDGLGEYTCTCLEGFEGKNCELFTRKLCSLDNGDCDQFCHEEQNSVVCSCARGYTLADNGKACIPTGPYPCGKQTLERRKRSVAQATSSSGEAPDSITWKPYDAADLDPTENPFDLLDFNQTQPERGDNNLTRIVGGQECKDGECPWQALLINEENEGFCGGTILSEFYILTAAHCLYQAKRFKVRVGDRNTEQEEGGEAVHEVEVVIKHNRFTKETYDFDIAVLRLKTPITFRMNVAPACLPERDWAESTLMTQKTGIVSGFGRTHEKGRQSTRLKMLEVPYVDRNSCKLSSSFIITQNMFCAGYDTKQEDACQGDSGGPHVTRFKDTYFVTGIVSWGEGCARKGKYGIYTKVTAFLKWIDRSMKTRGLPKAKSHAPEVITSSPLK

| Protein | KM (FX activation by FIXa in the Xase complex with FVIIIa, PC/PS vesicles and Ca2+) [µM] | % of WT kcat/KM [%] | kcat/KM [M⁻¹ s⁻¹] |
| --- | --- | --- | --- |
| B1 | 0.0364 | – | – |
| B2 | – | 727 | 3.4e+08 |
| B3 | – | 810 | 3.7e+08 |
| B4 | – | 41 | 1.9e+07 |
| B5 | – | 411 | 1.9e+08 |
| B6 | – | 320 | 1.5e+08 |
| B7 | – | 78 | 3.6e+07 |
| B8 | – | 36 | 1.7e+07 |
| B9 | – | 264 | 1.2e+08 |
| B10 | – | 228 | 1e+08 |
| B11 | 0.0164 | – | – |
| B12 | – | 564 | 2.6e+08 |
| B13 | – | 44 | 2e+07 |
| B14 | – | 135 | 6.2e+07 |
| B15 | – | 318 | 1.5e+08 |
| B16 | – | 401 | 1.8e+08 |
| B17 | – | 30 | 1.4e+07 |
| B18 | – | 53 | 2.5e+07 |
| B19 | – | 105 | 4.8e+07 |
| B20 | 0.0945 | – | – |
| B21 | – | 134 | 6.2e+07 |
| B22 | – | 189 | 8.7e+07 |
| B23 | – | 366 | 1.7e+08 |
| B24 | – | 406 | 1.9e+08 |
| B25 | 0.0753 | – | – |
| B26 | 0.0771 | – | – |
| B27 | – | 91 | 4.2e+07 |
| B28 | – | 54 | 2.5e+07 |
| B29 | – | 274 | 1.3e+08 |
